Reference: the Human Domainome abundance scans (Beltran et al. 2025)
± gives the uncertainty stated by the source.

B1: Transcription elongation regulator 1-like protein, residues 448 to 504; numbered along this chain, Q5VWI1 (parent)
chain: LPLEERVTHFRDMLLERGVSAFSTWEKELHKIVFDPRYLLLNSEERKQIFEQFVKTR
B2: Nanos homolog 2, residues 63 to 115; numbered along this chain, P60321 (parent)
chain: CNFCKHNGESRHVYSSHQLKTPDGVVVCPILRHYVCPVCGATGDQAHTLKYCP

Variants of: B1
Experiment: abundance fitness (aPCA) (normalised: wild type 0, dead -1); higher = more abundant; growth selection in yeast, the domain comes from the species named
Settings: Homo sapiens

F10T and F10P are within error of each other in abundance fitness: -0.679 ± 0.4 for the first, -0.227 ± 0.46 for the second.

F10N and F10L are within error of each other in abundance fitness: -0.237 ± 0.43 for the first, -0.682 ± 0.21 for the second.

Compared with F10V, Q48N is higher in abundance fitness: -0.97 ± 0.36 for the first, 0.751 ± 0.21 for the second.

Q48G and Q48C are within error of each other in abundance fitness: -0.237 ± 0.084 for the first, -0.227 ± 0.1 for the second.

First: Q48S
Second: T24V
The abundance fitness of the first is higher: -0.139 ± 0.1 for the first, -0.59 ± 0.12 for the second.

T24H and T24A are within error of each other in abundance fitness: -0.361 ± 0.38 for the first, -0.561 ± 0.27 for the second.

First: T24S
Second: P2S
The abundance fitness of the first is lower: -0.237 ± 0.082 for the first, 1.09 ± 0.14 for the second.

First: P2N
Second: P2Q
The abundance fitness of the first is higher: 1.18 ± 0.37 for the first, 0.364 ± 0.16 for the second.

P2T and P2D are within error of each other in abundance fitness: 1.24 ± 0.085 for the first, 1.26 ± 0.14 for the second.

Compared with P2L, V54W is lower in abundance fitness: -0.147 ± 0.26 for the first, -0.624 ± 0.18 for the second.

V54E and N42C are within error of each other in abundance fitness: -0.821 ± 0.3 for the first, -0.437 ± 0.2 for the second.

N42L and N42T are within error of each other in abundance fitness: -0.529 ± 0.23 for the first, -0.325 ± 0.26 for the second.

First: N42W
Second: N42Q
The abundance fitness of the first is lower: -0.733 ± 0.35 for the first, 0.013 ± 0.25 for the second.

F22Q and F22S are within error of each other in abundance fitness: 0.199 ± 0.1 for the first, 0.063 ± 0.092 for the second.

First: F22R
Second: F22N
The abundance fitness of the first is lower: -0.155 ± 0.1 for the first, 0.471 ± 0.21 for the second.

F22I and V19L are within error of each other in abundance fitness: -0.797 ± 0.33 for the first, -0.998 ± 0.32 for the second.

V19E and T56W are within error of each other in abundance fitness: -0.893 ± 0.14 for the first, -0.482 ± 0.36 for the second.

First: T56Q
Second: T56L
The abundance fitness of the first is higher: 0.022 ± 0.12 for the first, -0.311 ± 0.13 for the second.

T56I and T56G are within error of each other in abundance fitness: -0.034 ± 0.19 for the first, -0.303 ± 0.089 for the second.

L14K and L14D are within error of each other in abundance fitness: -0.905 ± 0.34 for the first, -0.484 ± 0.22 for the second.

Going from L14W to L41P, the abundance fitness falls from -0.093 ± 0.21 to -0.917 ± 0.15.

Going from L41I to L41K, the abundance fitness falls from -0.409 ± 0.071 to -1.11 ± 0.36.

L41E and L41G are within error of each other in abundance fitness: -0.781 ± 0.18 for the first, -0.569 ± 0.11 for the second.

First: L41M
Second: D35V
The abundance fitness of the first is higher: -0.335 ± 0.16 for the first, -0.836 ± 0.13 for the second.

D35E and D35P are within error of each other in abundance fitness: -0.667 ± 0.37 for the first, -0.722 ± 0.47 for the second.

Going from D35R to D35A, the abundance fitness falls from -0.436 ± 0.21 to -1.02 ± 0.29.

First: D35T
Second: L1V
The abundance fitness of the first is lower: -0.892 ± 0.19 for the first, -0.4 ± 0.18 for the second.

L15S and L15I are within error of each other in abundance fitness: 0.054 ± 0.1 for the first, -0.315 ± 0.32 for the second.

L15R and L15K are within error of each other in abundance fitness: 0.139 ± 0.088 for the first, -0.161 ± 0.26 for the second.

L15W and L15V are within error of each other in abundance fitness: -0.406 ± 0.15 for the first, -0.207 ± 0.15 for the second.

L15N and Q52S are within error of each other in abundance fitness: -0.154 ± 0.37 for the first, -0.151 ± 0.07 for the second.

Q52P and Q52Y are within error of each other in abundance fitness: -0.618 ± 0.11 for the first, -0.804 ± 0.22 for the second.

Q52H and Q52V are within error of each other in abundance fitness: -0.426 ± 0.097 for the first, -0.526 ± 0.09 for the second.

Going from I49D to I49C, the abundance fitness falls from 0.515 ± 0.3 to -0.261 ± 0.23.

I49T and I49V are within error of each other in abundance fitness: 0.117 ± 0.18 for the first, 0.082 ± 0.13 for the second.

I49M and I49S are within error of each other in abundance fitness: -0.599 ± 0.26 for the first, -0.669 ± 0.23 for the second.

I49E and I49G are within error of each other in abundance fitness: -0.3 ± 0.39 for the first, -0.643 ± 0.17 for the second.

E28Y and E28Q are within error of each other in abundance fitness: -0.946 ± 0.21 for the first, -0.641 ± 0.4 for the second.

E28V and E28F are within error of each other in abundance fitness: -0.71 ± 0.12 for the first, -0.796 ± 0.15 for the second.

E28R and E28L are within error of each other in abundance fitness: -0.576 ± 0.13 for the first, -0.446 ± 0.33 for the second.

E28G and R37L are within error of each other in abundance fitness: -0.701 ± 0.18 for the first, -0.952 ± 0.2 for the second.

R37G and R37P are within error of each other in abundance fitness: -0.692 ± 0.1 for the first, -0.769 ± 0.34 for the second.

R37V and R37Q are within error of each other in abundance fitness: -0.564 ± 0.13 for the first, -0.829 ± 0.5 for the second.

Going from P36K to P36A, the abundance fitness falls from 0.011 ± 0.17 to -0.42 ± 0.13.

P36S and P36L are within error of each other in abundance fitness: -0.488 ± 0.15 for the first, -0.714 ± 0.17 for the second.

P36R and P36E are within error of each other in abundance fitness: -0.504 ± 0.13 for the first, -0.409 ± 0.29 for the second.

I32S and I32M are within error of each other in abundance fitness: -0.916 ± 0.23 for the first, -0.466 ± 0.33 for the second.

I32K and I32T are within error of each other in abundance fitness: -0.847 ± 0.32 for the first, -0.81 ± 0.43 for the second.

I32W and I32F are within error of each other in abundance fitness: -0.514 ± 0.32 for the first, -0.433 ± 0.47 for the second.

Going from I32Y to I32C, the abundance fitness falls from 0.058 ± 0.14 to -0.484 ± 0.39.

I32G and I32E are within error of each other in abundance fitness: -0.764 ± 0.16 for the first, -0.633 ± 0.18 for the second.

E4T and E4A are within error of each other in abundance fitness: -0.631 ± 0.23 for the first, -0.368 ± 0.33 for the second.

First: E4P
Second: E26M
The abundance fitness of the first is lower: -0.711 ± 0.29 for the first, -0.09 ± 0.32 for the second.

E26F and E26G are within error of each other in abundance fitness: -0.617 ± 0.17 for the first, -0.643 ± 0.16 for the second.

E26P and E26D are within error of each other in abundance fitness: -0.294 ± 0.39 for the first, -0.168 ± 0.31 for the second.

E26V and E26R are within error of each other in abundance fitness: -0.914 ± 0.24 for the first, -0.861 ± 0.29 for the second.

Going from E26K to W25Y, the abundance fitness rises from -1.04 ± 0.42 to 0.169 ± 0.28.

W25L and V33G are within error of each other in abundance fitness: -0.795 ± 0.29 for the first, -0.764 ± 0.15 for the second.

First: V33M
Second: V33R
The abundance fitness of the first is lower: -0.227 ± 0.27 for the first, 0.108 ± 0.062 for the second.

First: V33S
Second: V33T
The abundance fitness of the first is higher: 0.028 ± 0.18 for the first, -0.423 ± 0.19 for the second.

V33I and K27R are within error of each other in abundance fitness: 0.129 ± 0.33 for the first, -0.295 ± 0.14 for the second.

Compared with K27Q, K27G is lower in abundance fitness: 0.101 ± 0.29 for the first, -0.366 ± 0.15 for the second.

K27H and K27W are within error of each other in abundance fitness: -0.612 ± 0.23 for the first, -0.799 ± 0.37 for the second.

Going from K27A to K27P, the abundance fitness falls from 0.073 ± 0.15 to -0.627 ± 0.23.

First: K27F
Second: L40D
The abundance fitness of the first is higher: 0.197 ± 0.25 for the first, -1.05 ± 0.36 for the second.

L40A and L40P are within error of each other in abundance fitness: -0.504 ± 0.094 for the first, -0.688 ± 0.32 for the second.

L40W showed an abundance fitness of -0.639 ± 0.26.

Variants of: B2
Experiment: as above
Settings: Homo sapiens

F3K and F3M are within error of each other in abundance fitness: -1.44 ± 0.43 for the first, -1.06 ± 0.21 for the second.

Compared with F3D, F3P is lower in abundance fitness: -0.701 ± 0.1 for the first, -1.3 ± 0.097 for the second.

Going from F3E to F3C, the abundance fitness rises from -1.22 ± 0.25 to -0.632 ± 0.084.

F3L and F3I are within error of each other in abundance fitness: -0.576 ± 0.075 for the first, -0.399 ± 0.25 for the second.

Compared with F3H, F3G is lower in abundance fitness: -0.502 ± 0.13 for the first, -1.2 ± 0.11 for the second.

F3N and C1W are within error of each other in abundance fitness: -0.877 ± 0.27 for the first, -0.941 ± 0.21 for the second.

C1G and C1F are within error of each other in abundance fitness: -0.554 ± 0.071 for the first, -0.347 ± 0.22 for the second.

C1Y and C1S are within error of each other in abundance fitness: -0.762 ± 0.4 for the first, -0.337 ± 0.17 for the second.

Going from C1L to N2T, the abundance fitness rises from -0.745 ± 0.064 to -0.408 ± 0.087.

Compared with N2G, N2P is lower in abundance fitness: -0.484 ± 0.074 for the first, -0.812 ± 0.19 for the second.

N2W and N2L are within error of each other in abundance fitness: -0.759 ± 0.08 for the first, -0.864 ± 0.061 for the second.

First: N2D
Second: N2A
The abundance fitness of the first is higher: -0.359 ± 0.13 for the first, -0.823 ± 0.054 for the second.

First: N2F
Second: N2R
The abundance fitness of the first is higher: -0.324 ± 0.092 for the first, -0.768 ± 0.1 for the second.

N2V and N2E are within error of each other in abundance fitness: -0.819 ± 0.084 for the first, -0.663 ± 0.099 for the second.

N2C and N2H are within error of each other in abundance fitness: -0.701 ± 0.082 for the first, -0.647 ± 0.12 for the second.

N2K and N2Y are within error of each other in abundance fitness: -0.255 ± 0.076 for the first, -0.254 ± 0.12 for the second.

Going from N2I to N2M, the abundance fitness falls from -0.157 ± 0.12 to -0.861 ± 0.16.
